The values below are quoted from earlier work in paper PMC3476528.

pKd: −log10 of the molar value.

As a reminder, the pKd is the Kd on a negative log10 scale, so that one unit is a factor of ten.

This data set deals with histone H3 (Homo sapiens) (UniProt P68431).

Sequence of CHD4 PHD2 (Q14839 449-496): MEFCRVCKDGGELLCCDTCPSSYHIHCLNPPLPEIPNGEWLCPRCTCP

As to CHD4 PHD2 (from UniProt Q14839), the negative logarithm of the Kd (pKd) was 4.74.
